Reference: patent publication US12312397B2, “Anti-O2 antibodies and uses thereof” (priority 2016, dated 2025)

How the values were obtained:
[1] = tested on: antibiotic resistant Klebsiella pneumoniae strains; assay type: in vivo
Procedure: (§1) C57/BL6 mice were obtained from Jackson Laboratories and maintained in a special pathogen-free facility. All animal experiments were conducted in accordance with Institutional Animal Care and Use Committee (IACUC) protocol and guidance. K. pneumoniae strains were grown on agar plates overnight and diluted in saline at proper concentration. The inoculum titer was determined by plating a serial dilution of bacteria onto agar plates prior to and post challenge. In acute pneumonia models, C57/BL6 mice were inoculated with 1e4 to 2e8 colony-forming units (CFU) of K. pneumoniae clinical isolates in 50 μl saline intranasally. Anti-K pneumoniae monoclonal antibodies (mAbs) and human IgG1 control antibodies were given 1-24 hour post bacterial challenge (therapeutic dosing). Mouse survival was monitored daily until up to day 8. Survival data of representative experiments were plotted in Graphpad Prism software.
The lethal pneumonia model as described in Example 9 was used to assess the activity of anti-O2 LPS antibodies in combination with an antibiotic. Both antibiotic and antibody were administered 1 hour after bacterial infection.
50 mg/kg of meropenem and 2 mg/kg of antibody were administered at 1, 2, 4, 6, and 24 hour after bacterial infection, as described for the antibody and antibiotic combination studies in Examples 9 and 10.

O2 LPS = test: ELISA binding to O2 LPS; set-up: species or system Klebsiella pneumoniae; settings: secondary screening, ELISA
Procedure, shortened: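 Serial dilutions of monoclonal antibodies bound to LPS-coated plates for 1 h at room temperature, detected with alkaline phosphatase-conjugated anti-human IgG (1 h) and pNPP substrate (30 min). Absorbance read at 405 nm; EC50 values derived from binding curves.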

K. pneumoniae O2 = test: Mouse protection models (O2), Table 7 summary; assay type: in vivo, Klebsiella pneumoniae; set-up: key: +++: Strongly positive activity; +: Positive activity; +/−: Somewhat positive depending upon the test conditions; settings: mouse pneumonia models
Procedure: As described in more detail in below, anti-O2 LPS mAbs were tested for: 1) binding to O1 and O2 LPS (see Example 5); 2) LPS neutralization (LPS-Neut) against O1 and O2 LPS (see Example 7); 3) OPK against capsule mutant strain 43816ΔcpsB lux (O1) and 8570ΔcpsB lux (O2) (see Example 8); and 4) protective activity in pneumonia models (see Example 9). O2 LPS mAbs were subsequently divided into three classes based on their in vitro activities. Class I mAbs were characterized as Binding (O1+O2+)/OPK (O1−O2+); Class 2 mAbs were characterized as Binding (O1+O2+)/OPK (O1+O2+); and Class III mAbs were characterized as Binding (O1±O2+)/OPK (O1−O2+).
as §1
Mice were challenged with 2e8 CFU of Klebsiella pneumoniae Carbanpenemase (KPC) strain Kp961842_O2 or with 3e8 CFU of KPC strain Kp977778_O2, followed by the administration of anti-O2 mAbs. When administered at a concentration of 2 mg/kg 1 hour post bacterial infection, Class III anti-O2 LPS mAbs KPN42, KPN179-IgG1, and KPS44v2017 protected mice from lethal bacterial challenge with the multi-drug resistant KPC strains Kp961842_O2 (FIG. 6, left panel, and FIG. 10) and Kp977778_O2 (FIG. 6B, right panel).

[2] = tested on: K. pneumoniae 8570ΔcpsBLux (O2); test: Opsonophagocytic killing (OPK) assay, O2 capsule mutant; assay type: cell-based, Klebsiella pneumoniae; set-up: key to D Capsule OPK O2: +++: Strongly positive activity; +: Positive activity; +/−: Somewhat positive depending upon the test conditions; settings: capsule mutant strain 8570ΔcpsB lux (O2)
Procedure, shortened: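 Luminescent capsule-deficient K. pneumoniae strains were mixed with DMF-differentiated HL-60 cells, 1:10 baby rabbit serum and anti-O2 LPS mAbs (2 ng–2.5 μg/mL), then shaken for 2 h at 37 °C. Killing % came from luminescence (RLU) against no-antibody and negative-control mAb wells, with >40% scored as positive.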

B1: KPN179: Class III anti-O2 antigen human mAb; VH SEQ ID NO: 53, VL SEQ ID NO: 54 (antibody, V domains shown)
VH: EVQVVESGGGLVKPGGSLRLSCAASGFTFNNAWMNWVRQAPGKGLEWVGRIKRKADGETTDYPASVKGRFTVSRDDSKNTIYLQMNSLKTEDTAIYYCTTRIVTTNDYWGQGTLVTVSS
VL: QSALTQPPSVSGSPGQSVTISCTGTSSDVGYYDYVSWYQQHHPGKAPKHMIYDVNKRPSGVPDRFSGSKSGNTASLTISGLQAEDEADYYCCSYAGGDTFVFGTGTKVTVL
modifications: Description of Artificial Sequence: SyntheticKPN179 VH polypeptide; Description of Artificial Sequence: SyntheticKPN179 VL polypeptide
time post infection up to which combination with meropenem protects better than control mAb and meropenem ([1]; 50 mg/kg meropenem + 2 mg/kg antibody given 1, 2, 4, 6, 24 hour after infection, mice): up to 4 hours | protection of combination with meropenem compared to antibody or antibiotic monotherapy ([1]; meropenem 50 mpk + antibody 0.2 mpk, both 1 hour after infection, mice): significantly improved protection | synergy with meropenem in lethal pneumonia model ([1]; sub-therapeutic antibody dose, % survival of mice): strong synergy | binding to LPS-O2 (O2 LPS): bind | Mouse protection models (O2) (K. pneumoniae O2): +++ | D Capsule OPK O2 [2]: +++
